Source: publication PMC7375048, “The impact of acute rosiglitazone on insulin pharmacokinetics at the blood‐brain barrier” (Endocrinology, Diabetes & Metabolism, 2020)
Counter-ions that a name gives are not always drawn.

How the values were obtained:
[1] = test system: brain capillary sequestration; format: in vivo, mouse
Description: Two and a half minutes later, blood was collected from the carotid, the mice decapitated and the whole brain removed. […] Homogenates were then centrifuged at 3500 g for 20 minutes at 4°C with a swinging bucket rotor (Beckman Coulter). The brain capillary fraction contained in the pellet and the supernatant containing the brain parenchyma were carefully separated. […] Fractions were expressed as percentages of total brain.

murine BBB [2] = experiment: Blood-to-brain 125I-insulin transport, multiple-time regression analysis; format: in vivo, mouse
Description: (§1) This experimental set‐up was based on previous studies investigating the acute effect of rosiglitazone. ^35 , ^36
(§2) Mice were decapitated, and the brain was collected immediately, dissected into the hypothalamus, olfactory bulb and remaining whole brain and weighed. Blood was centrifuged at 5400g for 10 min and serum collected. Radioactivity in 50 µL of serum and entire brain samples were counted in a gamma counter (Wizard2; Perkin Elmer).
Exposure time is calculated by the formula:(1) Exposure time=∫0tCp(t)dt/Cp(t) where Cp(t) is the level of radioactivity (cpm) in serum at time (t). Exposure time corrects for the clearance of peptide from the blood. […] The slope of the linearity measures K i and is reported with its standard error term. […] For cardiac perfusion studies, formula 2 is employed, using the brain/perfusate ratios and the clock time is used in place of exposure time.

P‐glycoprotein = conditions: cited from earlier work
Source text: (§3) However, we were interested in the direct effect that would be mediated at the luminal surface of the brain endothelial cell, rather than an effect within the CNS. Indeed, PPARγ activation is known to have a direct effect on cerebral vascular expression of proteins, including various adhesion molecules and metalloproteinases. ^61 Therefore, we know brain en ...

murine BBB [3] = conditions: mouse, in vivo, iv; cited from earlier work
Source text: as §3

[4] = mouse, in vivo, iv
Description: as §2

murine BBB [5] = experiment: Transcardiac brain perfusion of 125I-insulin, multiple-time regression analysis; conditions: mouse, in vivo
Source text: as §1
The perfusate was freshly prepared for each study day. Perfusate was collected throughout the study to determine the average cpm/µL of perfusate. After perfusion, the olfactory bulb was collected and the brain dissected into regions (frontal/parietal/occipital cortex, striatum, hypothalamus, hippocampus, thalamus, cerebellum, midbrain and pons/medulla) according to Glowinski and Iversen; ^38 each region was weighed separately. The amount of radioactivity was determined by a gamma counter (Wizard2, Perkin Elmer). Brain/perfusate ratios are calculated by dividing the cpm in a gram of brain by the cpm in a µL of perfusate to yield units of µL/g.
Exposure time is calculated by the formula:(1) Exposure time=∫0tCp(t)dt/Cp(t) where Cp(t) is the level of radioactivity (cpm) in serum at time (t). Exposure time corrects for the clearance of peptide from the blood. […] The slope of the linearity measures K i and is reported with its standard error term. The y‐intercept of the linearity measures V i, the initial volume of distribution in brain at t = 0. ^37 Blasberg, Fenstermacher and Patlak originally described V i as the volume of test substance that rapidly and reversibly exchanges with the plasma (Blasberg 1983). For cardiac perfusion studies, formula 2 is employed, using the brain/perfusate ratios and the clock time is used in place of exposure time.

Compound | effect on capillary/parenchyma distribution of 125I-insulin ([1]; 10 µg RSG pretreatment, data not shown) | effect on 125I-insulin vascular binding (V i), whole brain (murine BBB [2]; 1 µg S961 (P = .0006), 10 µg RSG pretreatment with S961 (P = .044), two-way ANOVA, Sidak) | effect on 125I-insulin vascular binding (V i), hypothalamus (murine BBB [2]; 1 µg S961 (P = .002), 10 µg RSG pretreatment with S961 (P = .025), two-way ANOVA, Sidak) | effect on rate of 125I-insulin BBB transport (murine BBB [2]; whole brain, olfactory bulb, hypothalamus, 10 µg RSG pretreatment, 1 µg S961 co-injected) | P‐glycoprotein interaction (P‐glycoprotein) | penetration of the murine BBB (murine BBB [3]) | time of brain uptake (murine BBB [3]) | fraction of radioactivity in brain parenchyma vs capillary fraction ([1]; mouse, in vivo, iv) | average half‐time clearance from blood [4] | BBB transport rate K i, hypothalamus (murine BBB [2]; mouse, in vivo) | average rate of transport K i, hypothalamus (murine BBB [2]; mouse, in vivo) | average rate of transport K i, olfactory bulb (murine BBB [2]; mouse, in vivo) | vascular binding V i, hypothalamus (murine BBB [2]; mouse, in vivo) | vascular binding V i, olfactory bulb (murine BBB [2]; mouse, in vivo) | BBB transport rate K i, whole brain (murine BBB [2]; mouse, in vivo, iv) | BBB transport rate K i following cardiac perfusion, hypothalamus (murine BBB [5]) | BBB transport rate K i following cardiac perfusion, olfactory bulb (murine BBB [5]) | change of hypothalamic BBB transport rate in the absence of serum (murine BBB [5]) | vascular binding V i following cardiac perfusion, hypothalamus (murine BBB [5]) | vascular binding V i following cardiac perfusion, olfactory bulb (murine BBB [5])
CN(CCOc1ccc(CC2SC(=O)NC2=O)cc1)c1ccccn1 (centres unmarked) [RSG, rosiglitazone maleate] | no overt differences | prevented this decrease in binding | prevented this decrease in binding | did not significantly alter | substrate of p‐glycoprotein | 0.045 % of an iv injected dose | ≤ 1 min |  |  |  |  |  |  |  |  |  |  |  |  | 
125I‐insulin: human insulin (Sigma‐Aldrich) radioactively labelled with 125I by the chloramine‐T method |  |  |  |  |  |  |  | majority | 1.54 min | 1.39 ± 0.28 µL/g‐min | 1.75 µL/g‐min | 2.25 µL/g‐min | 11.6 ± 2.0 µL/g | 10.4 ± 4.8 µL/g | 1.26 ± 0.17 µL/g‐min | 6.11 ± 1.92 µL/g‐min | 3.34 ± 1.31 µL/g‐min | nearly tripled | -4.5 ± 5.7 µL/g | 13.5 ± 4.4 µL/g
